# IntAct's records for PubMed 18319344
# B1: PTS system glucose-specific EIICB component (Escherichia coli (strain K12)), P69786 (parent)
# chain: MFKNAFANLQKVGKSLMLPVSVLPIAGILLGVGSANFSWLPAVVSHVMAEAGGSVFANMPLIFAIGVALGFTNNDGVSALAAVVAYGIMVKTMAVVAPLVLHLPAEEIASKHLADTGVLGGIISGAIAAYMFNRFYRIKLPEYLGFFAGKRFVPIISGLAAIFTGVVLSFIWPPIGSAIQTFSQWAAYQNPVVAFGIYGFIERCLVPFGLHHIWNVPFQMQIGEYTNAAGQVFHGDIPRYMAGDPTAGKLSGGFLFKMYGLPAAAIAIWHSAKPENRAKVGGIMISAALTSFLTGITEPIEFSFMFVAPILYIIHAILAGLAFPICILLGMRDGTSFSHGLIDFIVLSGNSSKLWLFPIVGIGYAIVYYTIFRVLIKALDLKTPGREDATEDAKATGTSEMAPALVAAFGGKENITNLDACITRLRVSVADVSKVDQAGLKKLGAAGVVVAGSGVQAIFGTKSDNLKTEMDEYIRNH
# partner: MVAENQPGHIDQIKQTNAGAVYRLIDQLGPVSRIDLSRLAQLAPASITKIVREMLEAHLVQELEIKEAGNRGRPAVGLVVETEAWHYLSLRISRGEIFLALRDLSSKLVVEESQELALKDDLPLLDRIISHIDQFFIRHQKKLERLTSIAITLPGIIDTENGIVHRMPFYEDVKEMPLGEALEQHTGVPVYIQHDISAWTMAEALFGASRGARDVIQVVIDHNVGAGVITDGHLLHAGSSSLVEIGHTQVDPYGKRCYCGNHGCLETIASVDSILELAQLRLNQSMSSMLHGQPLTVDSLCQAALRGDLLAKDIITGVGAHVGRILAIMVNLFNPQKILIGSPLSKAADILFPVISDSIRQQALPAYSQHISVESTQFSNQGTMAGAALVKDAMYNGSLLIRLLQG
# Variants of: B1
# Settings: with mlc_ecoli mlc
row,effect of a mutation on the interaction,Variant
1,disrupting interaction,MFKNAFANLQKVGKSLMLPVSVLPIAGILLGVGSANFSWLPAVVSHVMAEAGGSVFANMPLIFAIGVALGFTNNDGVSALAAVVAYGIMVKTMAVVAPLVLHLPAEEIASKHLADTGVLGGIISGAIAAYMFNRFYRIKLPEYLGFFAGKRFVPIISGLAAIFTGVVLSFIWPPIGSAIQTFSQWAAYQNPVVAFGIYGFIERCLVPFGLHHIWNVPFQMQIGEYTNAAGQVFHGDIPRYMAGDPTAGKLSGGFLFKMYGLPAAAIAIWHSAKPENRAKVGGIMISAALTSFLTGITEPIEFSFMFVAPILYIIHAILAGLAFPICILLGMRDGTSFSHGLIDFIVLSGNSSKLWLFPIVGIGYAIVYYTIFRVLIKALDLKTPGREDATEDAKATGTSEMAPALVAAFGGKENITNLDACITRLRVSVADVSKVDQAGLKKLGAAGVVVAGSGVAAIFGTKSDNLKTEMDEYIRNH [Q456A]
2,disrupting interaction,MFKNAFANLQKVGKSLMLPVSVLPIAGILLGVGSANFSWLPAVVSHVMAEAGGSVFANMPLIFAIGVALGFTNNDGVSALAAVVAYGIMVKTMAVVAPLVLHLPAEEIASKHLADTGVLGGIISGAIAAYMFNRFYRIKLPEYLGFFAGKRFVPIISGLAAIFTGVVLSFIWPPIGSAIQTFSQWAAYQNPVVAFGIYGFIERCLVPFGLHHIWNVPFQMQIGEYTNAAGQVFHGDIPRYMAGDPTAGKLSGGFLFKMYGLPAAAIAIWHSAKPENRAKVGGIMISAALTSFLTGITEPIEFSFMFVAPILYIIHAILAGLAFPICILLGMRDGTSFSHGLIDFIVLSGNSSKLWLFPIVGIGYAIVYYTIFRVLIKALDLKTPGREDATEDAKATGTSEMAPALVAAFGGKENITNLDACITRLRVSVADVSKVDQAGLKKLGAAGVQVAGSGVQAIFGTKSDNLKTEMDEYIRNH [V449Q]
3,decreasing interaction,MFKNAFANLQKVGKSLMLPVSVLPIAGILLGVGSANFSWLPAVVSHVMAEAGGSVFANMPLIFAIGVALGFTNNDGVSALAAVVAYGIMVKTMAVVAPLVLHLPAEEIASKHLADTGVLGGIISGAIAAYMFNRFYRIKLPEYLGFFAGKRFVPIISGLAAIFTGVVLSFIWPPIGSAIQTFSQWAAYQNPVVAFGIYGFIERCLVPFGLHHIWNVPFQMQIGEYTNAAGQVFHGDIPRYMAGDPTAGKLSGGFLFKMYGLPAAAIAIWHSAKPENRAKVGGIMISAALTSFLTGITEPIEFSFMFVAPILYIIHAILAGLAFPICILLGMRDGTSFSHGLIDFIVLSGNSSKLWLFPIVGIGYAIVYYTIFRVLIKALDLKTPGREDATEDAKATGTSEMAPALVAAFGGKENITNLDACITRLRVSVADVSKVDQAGLKKLGAAGVVVFGSGVQAIFGTKSDNLKTEMDEYIRNH [A451F]
